From patent publication US20240108738A1 (Bicycle, published 2024)
Numbered stars: 1 amine (or outer) side, 2 acyl side, 3 side chain; on linkers, the order of the positions; unused ones are H or OH. Bridge positions count the residues as written; N and C are the ends. Square brackets hold non-standard residues; d marks the D form. Primed or numbered codes have the meaning given here. Ends that are not written are not given here. * marks the point of attachment. TBMT = 2,4,6-tris(bromomethyl)-s-triazine, C(c1nc(C[*:2])nc(C[*:3])n1)[*:1]; TBMT″ = 2,4,6-tris(bromomethyl)-s-triazine, scaffold on three Cys; TATA = O=C(CC[*:1])N1CN(C(=O)CC[*:2])CN(C(=O)CC[*:3])C1; Biotin = O=C1N[C@H]2[C@H](CS[C@H]2CCCCC(=O)*)N1; Phe(4-CF3) = N[C@@H](Cc1ccc(C(F)(F)F)cc1)C(=O)O; Phe(4-CN) = N#Cc1ccc(C[C@H](N)C(=O)O)cc1; Phe(4-Cl) = N[C@@H](Cc1ccc(Cl)cc1)C(=O)O; Cba = N[C@@H](CC1CCC1)C(=O)O; Pent4ynoyl = C#CCCC(=O)*; Sar = CNCC(=O)O

What was measured:
[1] = biological target: T1, Human NKp46 Fc tag (Acro Biosystems, NC1-H5257) (human, UniProt O76036 22-255); assay: SPR Method 1 and/or 2
T1 construct: bought; also called Fc-tagged human NKp46
How it was run: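 Fc-tagged human NKp46 captured on anti-human IgG surface (500–1000 RU); compounds run in PBS-P+ with 2% DMSO at 25 °C, 50 μL/min, 60 s association, 400 s dissociation. Double-referenced, DMSO-corrected; KD from steady-state 1:1 fit, kinetic constants from kinetic 1:1 fit where appropriate.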

[2] = biological target: T2, Human NKp46 His tag (Acro Biosystems, NC1-H52H4) (human, UniProt O76036 22-255); assay: FP competition vs BCY15035
T2 construct: bought; also called human NKp46-his tagged protein
Experimental: The untagged competitor peptides were diluted in assay buffer 25 mM HEPES, 100 mM NaCl, 0.01% P20, pH 7.4. to a top concentration of 5000 nM and diluted 2-fold in 11 steps. The human NKp46-his tagged protein (AcroBiosystems) was diluted to 40 nM final concentration in the assay. […] The total volume of 25 μL was prepared in black walled and flat-bottomed low binding low volume 384 well plates. Measurements were performed using Envision (PerkinElmer) equipped with the excitation filter FITC FP 480, emission filter FITC FP P-pol 535 and 2nd emission filter FITC FP S-pol 535 and set to 30 flashes. The gain was set in a well containing tracer alone without target protein.

[3] = biological target: T3, human CD16a V176 variant, biotinylated (human, UniProt P08637 17-208, N-terminally biotinylated in-house); assay: SPR
T3 construct: supplier is told for the AlphaScreen assay only; also called V Variant; FcγRIIIA V variant
Experimental: (§1) The SPR analysis was run at 25° C. at a flow rate of 50 μl/min with 60 seconds association and dissociation between 60 and 200 seconds. Data were corrected for DMSO excluded volume effects. All data were double-referenced for blank injections and reference surface using standard processing procedures and data processing and kinetic fitting were performed using Scrubber software, version 2.0c (BioLogic Software). Data were fitted using simple 1:1 binding model allowing for mass transport effects where appropriate.
(§2) For analysis of peptide binding, a Biacore 8k+ instrument was used with a CM5 chip (Cytiva). All experiments were carried out at 25° C. Streptavidin was immobilized on all flow cells by standard amine coupling chemistry. The running buffer was HBS-N(Cytiva, 10 mM HEPES, 0.15 M NaCl, pH 7.4) and the flow rate was 10 μl/min. The carboxymethyl dextran surface was activated with a 1:1 ratio of 0.4 M 1-ethyl-3-(3-dimethylaminopropyl) carbodiimide hydrochloride (EDC)/0.1 M N-hydroxy succinimide (NHS) (Cytiva) for 420s. Streptavidin (ProSpec, cat no. PRO-791) was diluted to 0.2 mg/ml in 10 mM sodium acetate pH 4.5 and was injected onto the chip surface for 600 s. Residual activated groups were blocked with a 420 s injection of 1 M ethanolamine (pH 8.5). The final surface density was 2000-3000 RU. Biotinylated CD16a was diluted to 5 μg/ml in HBS-N and was captured on flow cell 2 only of the streptavidin chip at a flow rate of 10 μl/min to 1500-2500 RU. The buffer was then changed to PBS-P+(Cytiva) supplemented with 0.5-2% DMSO. […] The flow rate was 30 μl/min with 100 s association and 400 s dissociation. Data were corrected for DMSO volume exclusion effects. All data were double-referenced against blank injections and reference surface response using standard processing procedures. Data processing and kinetic fitting was performed using Biacore Insight Evaluation Software with Extended Screening and Characterization Extension (Cytiva). Data were fitted using steady state affinity 1:1 binding model to determine KD. Data were fitted using kinetic 1:1 binding model to determine kinetic constants where appropriate.

[4] = biological target: T4, human CD16a F176 variant, biotinylated (human, UniProt P08637 17-208, C-terminally biotinylated); assay: SPR
T4 construct: supplier is told for the AlphaScreen assay only; also called F Variant; FcγRIIIA F variant
Experimental: as §1, §2

T4 sequence (P08637 17-208 limits assumed, change not shown): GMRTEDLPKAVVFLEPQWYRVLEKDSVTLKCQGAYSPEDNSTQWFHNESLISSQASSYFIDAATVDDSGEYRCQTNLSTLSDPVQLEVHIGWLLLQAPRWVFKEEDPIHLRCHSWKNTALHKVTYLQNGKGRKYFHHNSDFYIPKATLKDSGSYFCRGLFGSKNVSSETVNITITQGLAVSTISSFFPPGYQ
T2 sequence (O76036 22-255 limits assumed): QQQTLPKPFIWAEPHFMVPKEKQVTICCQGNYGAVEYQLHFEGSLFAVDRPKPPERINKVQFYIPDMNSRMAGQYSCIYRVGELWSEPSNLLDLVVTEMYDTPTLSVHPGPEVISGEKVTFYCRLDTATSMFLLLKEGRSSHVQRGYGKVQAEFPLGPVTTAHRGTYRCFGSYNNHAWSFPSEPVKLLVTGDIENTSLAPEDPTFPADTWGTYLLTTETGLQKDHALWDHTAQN
T1 sequence (O76036 22-255 limits assumed): as above
T3 sequence (P08637 other isoform, or with tags, fused parts or gaps mutant limits assumed): as the sequence (P08637 17-208 limits assumed, change not shown) above, with F160V counted along it

Kd [1] [nM] | Ki [2] [nM] | Kd [3] [nM] | Kd [4] [nM] | Binder
3.9 | 8 | – | – | ACY[Cba]PDYLC[dA]DEYCA-NH2 (linker 2-9-14 via TATA; N-terminus assumed; SMILES CC(C)C[C@@H]1NC(=O)[C@H](Cc2ccc(O)cc2)NC(=O)[C@H](CC(=O)O)NC(=O)[C@@H]2CCCN2C(=O)[C@H](CC2CCC2)NC(=O)[C@H](Cc2ccc(O)cc2)NC(=O)[C@@H](NC(=O)[C@H](C)N)CSCCC(=O)N2CN3CN(C2)C(=O)CCSC[C@H](NC1=O)C(=O)N[C@H](C)C(=O)N[C@@H](CC(=O)O)C(=O)N[C@@H](CCC(=O)O)C(=O)N[C@@H](Cc1ccc(O)cc1)C(=O)N[C@H](C(=O)N[C@@H](C)C(N)=O)CSCCC3=O, scaffold TATA) [BCY16132]
– | – | 3230 | – | ACVGLLELGPCSDLCAK(Pent4ynoyl)-NH2 (linker 2-11-15 via TBMT (inferred), scaffold TBMT) [BCY16165]
– | – | – | 2150 | ACRXSVEDPCGAWCA (CiR[6ClTrp]SVEDPCiiGAWCiii, scaffold TBMT) [BCY19050]
– | 464 | – | – | ACYLPD[Phe(4-CN)]LCGDEYCA-NH2 (linker 2-9-14 via TATA; N-terminus assumed; SMILES CC(C)C[C@@H]1NC(=O)[C@H](Cc2ccc(C#N)cc2)NC(=O)[C@H](CC(=O)O)NC(=O)[C@@H]2CCCN2C(=O)[C@H](CC(C)C)NC(=O)[C@H](Cc2ccc(O)cc2)NC(=O)[C@@H](NC(=O)[C@H](C)N)CSCCC(=O)N2CN3CN(C2)C(=O)CCSC[C@@H](C(=O)N[C@@H](C)C(N)=O)NC(=O)[C@H](Cc2ccc(O)cc2)NC(=O)[C@H](CCC(=O)O)NC(=O)[C@H](CC(=O)O)NC(=O)CNC(=O)[C@H](CSCCC3=O)NC1=O, scaffold TATA) [BCY16143]
– | 718 | – | – | ACYLPD[Phe(4-Cl)]LCGDEYCA-NH2 (linker 2-9-14 via TATA; N-terminus assumed; SMILES CC(C)C[C@@H]1NC(=O)[C@H](Cc2ccc(Cl)cc2)NC(=O)[C@H](CC(=O)O)NC(=O)[C@@H]2CCCN2C(=O)[C@H](CC(C)C)NC(=O)[C@H](Cc2ccc(O)cc2)NC(=O)[C@@H](NC(=O)[C@H](C)N)CSCCC(=O)N2CN3CN(C2)C(=O)CCSC[C@@H](C(=O)N[C@@H](C)C(N)=O)NC(=O)[C@H](Cc2ccc(O)cc2)NC(=O)[C@H](CCC(=O)O)NC(=O)[C@H](CC(=O)O)NC(=O)CNC(=O)[C@H](CSCCC3=O)NC1=O, scaffold TATA) [BCY16144]
– | – | – | 1600 | ACRXSVEDPCGAWCA (CiR[6MeTrp]SVEDPCiiGAWCiii, scaffold TBMT) [BCY19046]
– | – | 3220 | – | ACVGXEELGPCSDLCA (CiVG[tBuAla]EELGPCiiSDLCiii, scaffold TBMT) [BCY16501]
– | – | 1000 | – | ACRWYFSEXCAAWCA (CiRWYFSE[Aze]Cii[dA]AWCiii, scaffold TBMT) [BCY20394]
– | – | 5000 | 4020 | ACVGLXELGPCSDLCA (CiVGL[Nle]ELGPCiiSDLCiii, scaffold TBMT) [BCY16511]
11 | 17 | – | – | ACY[Cba]PDYLCGDEYCA-NH2 (linker 2-9-14 via TATA; N-terminus assumed; SMILES CC(C)C[C@@H]1NC(=O)[C@H](Cc2ccc(O)cc2)NC(=O)[C@H](CC(=O)O)NC(=O)[C@@H]2CCCN2C(=O)[C@H](CC2CCC2)NC(=O)[C@H](Cc2ccc(O)cc2)NC(=O)[C@@H](NC(=O)[C@H](C)N)CSCCC(=O)N2CN3CN(C2)C(=O)CCSC[C@@H](C(=O)N[C@@H](C)C(N)=O)NC(=O)[C@H](Cc2ccc(O)cc2)NC(=O)[C@H](CCC(=O)O)NC(=O)[C@H](CC(=O)O)NC(=O)CNC(=O)[C@H](CSCCC3=O)NC1=O, scaffold TATA) [BCY15639]
4.9 | 10 | – | – | Ac-CY[Cba]PDYLC[dA]DEYC-NH2 (linker 1-8-13 via TATA, scaffold TATA) [BCY16133]
– | – | 1430 | – | ACRWXFSEPCGAWCA (CiRW[4FPhe]FSEPCiiGAWCiii, scaffold TBMT) [BCY20379]
– | 317 | – | – | ACYLPD[Phe(4-CF3)]LCGDEYCA-NH2 (linker 2-9-14 via TATA; N-terminus assumed; SMILES CC(C)C[C@@H]1NC(=O)[C@H](Cc2ccc(C(F)(F)F)cc2)NC(=O)[C@H](CC(=O)O)NC(=O)[C@@H]2CCCN2C(=O)[C@H](CC(C)C)NC(=O)[C@H](Cc2ccc(O)cc2)NC(=O)[C@@H](NC(=O)[C@H](C)N)CSCCC(=O)N2CN3CN(C2)C(=O)CCSC[C@@H](C(=O)N[C@@H](C)C(N)=O)NC(=O)[C@H](Cc2ccc(O)cc2)NC(=O)[C@H](CCC(=O)O)NC(=O)[C@H](CC(=O)O)NC(=O)CNC(=O)[C@H](CSCCC3=O)NC1=O, scaffold TATA) [BCY16142]
230 | 282 | – | – | ACYLPDWLCGDEYCA-NH2 (linker 2-9-14 via TATA; also: scaffold TATA, TATB or TBMT, scaffold TATA) [BCY14455]
34 | 39 | – | – | ACYLPAYLCGDEYCA-NH2 (linker 2-9-14 via TATA; also: cyclised with TATA, TATB or TBMT, scaffold TATA) [BCY15656]
10 | 16 | – | – | ACYLPDYLC[dA]DEYCA-NH2 (linker 2-9-14 via TATA; N-terminus assumed; SMILES CC(C)C[C@@H]1NC(=O)[C@H](Cc2ccc(O)cc2)NC(=O)[C@H](CC(=O)O)NC(=O)[C@@H]2CCCN2C(=O)[C@H](CC(C)C)NC(=O)[C@H](Cc2ccc(O)cc2)NC(=O)[C@@H](NC(=O)[C@H](C)N)CSCCC(=O)N2CN3CN(C2)C(=O)CCSC[C@H](NC1=O)C(=O)N[C@H](C)C(=O)N[C@@H](CC(=O)O)C(=O)N[C@@H](CCC(=O)O)C(=O)N[C@@H](Cc1ccc(O)cc1)C(=O)N[C@H](C(=O)N[C@@H](C)C(N)=O)CSCCC3=O, scaffold TATA) [BCY15650]
– | – | – | 2980 | ACVGLXELGPCSDLCA (CiVGL[tBuAla]ELGPCiiSDLCiii, scaffold TBMT) [BCY16508]
– | – | – | 2820 | ACVGL[Cba]ELGPCSDLCA-NH2 (linker 2-11-15 via TBMT″, scaffold TBMT) [BCY16509]
– | – | 4000 | 1000 | ACPPEVWCHPLDCA[Sar][Sar][Sar][Sar][Sar][Sar]K(Biotin)-NH2 (linker 2-8-13 via TATA; N-terminus assumed; SMILES CC(C)C[C@@H]1NC(=O)[C@@H]2CCCN2C(=O)[C@H](Cc2c[nH]cn2)NC(=O)[C@@H]2CSCCC(=O)N3CN(CN(C3)C(=O)CCSC[C@H](NC(=O)[C@H](C)N)C(=O)N3CCC[C@H]3C(=O)N3CCC[C@H]3C(=O)N[C@@H](CCC(=O)O)C(=O)N[C@@H](C(C)C)C(=O)N[C@@H](Cc3c[nH]c4ccccc34)C(=O)N2)C(=O)CCSC[C@@H](C(=O)N[C@@H](C)C(=O)N(C)CC(=O)N(C)CC(=O)N(C)CC(=O)N(C)CC(=O)N(C)CC(=O)N(C)CC(=O)N[C@@H](CCCCNC(=O)CCCC[C@@H]2SC[C@@H]3NC(=O)N[C@@H]32)C(N)=O)NC(=O)[C@H](CC(=O)O)NC1=O, scaffold TATA) [BCY12622]
